Experimental data from ChEMBL document CHEMBL4476871, “SULFAMIDE AND SULFAMATE INHIBITORS OF hHint1” (2018).

Columns and labels:
[1] = compound: Nc1ncnc2c1ncn2[C@@H]1O[C@H](COP(=O)(O)OC(=O)CCc2c[nH]c3ccccc23)[C@@H](O)[C@H]1O; test: (§1) Inhibition of full-length human N-terminal His6-tagged Hint1 expressed in Escherichia coli Rosetta 2 pLysS cells assessed as ratio of Kcat to Km
[2] = compound: Nc1nc2c(ncn2[C@@H]2O[C@H](COP(=O)(O)NCCc3c[nH]c4ccccc34)[C@@H](O)[C@H]2O)c(=O)[nH]1; test: as §1

B1: Adenosine 5'-monophosphoramidase HINT1 (Homo sapiens), P49773 (protein)
chain: MADEIAKAQVARPGGDTIFGKIIRKEIPAKIIFEDDRCLAFHDISPQAPTHFLVIPKKHISQISVAEDDDESLLGHLMIVGKKCAADLGLNKGYRMVVNEGSDGGQSVYHVHLHVLGGRQMHWPPG
kcat/Km [1]: 1.1 ×10⁷ /M/s | kcat/Km [2]: 1.1 ×10⁷ /M/s
